Experimental data reported in paper PMC7910581.

Biological target: T1, Nla28-DBD (Myxococcus xanthus (DK1622?)) (UniProt Q1DD46)
T1 sequence: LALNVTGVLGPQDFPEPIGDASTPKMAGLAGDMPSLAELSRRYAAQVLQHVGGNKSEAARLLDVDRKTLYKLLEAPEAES
Assay: EMSA
Details: EMSA: 25 mM Tris acetate, 8.0 mM magnesium acetate, 10 mM KCl, 1 mM DTT, pH 8.0, 30 min at 30 C; 2 uM Nla28-DBD, 1 ng Cy5-DNA

binding, binds:
CAGCAGGCGCTCGAGGTCCTCAAGGTCAAGAAGTTCGAAAGCGGCATGGTGGTGGACCCCGTCACCATCGAACCGGAGGCCCCGCTGGGCCGCGCGCTGGAGCTGATGCGCCTTCACGGCGTGTCCGGCATCCCGGTGGTGAAGGGCCAGCGACTGGTGGGCATCGTCACCAGCCGCGACGTGCGCTTCGAGACCAACTT (double strand) [Cy5-P3778], GCGTCTTCTTGTCCGTACCGCGGAAGCGCAGCAGGTAGGGGTTGGCGTAGAAGATGTTGCCGGGCTCGCGCTTGCCCACCCAGAACGTCTCGGGGGCAATCTCCACCGGCACGAGGCGGAGGTCGGAGCTCTGGCTCGGGCTTGGGACTGGGGCGATGGTGCTGCTCATGGGCGCGGCGTTCCTTCCCTTTCGGGTGTAT (double strand) [Cy5-P1579], GCTCGTGTCGCGTCCCTACATCCAGAACGCCGCTCGCAAGGCATTGGTCTCCGCCGTGAAGAGCATTGAGGATGCTCAGCAGGAGCTGGAGAGGACGCAGAAGCAGGAGGTGGAGTCGGCAGGCGCGGTCTCGCAGGCAGGGGGCGCGAAGTCCTCCGGCTAGTCAGGACTGTGCGAGGTCGTGTGGACGCTGTCCCTGT (double strand) [Cy5-P1286]
